The values that follow come from article PMC5225067.

The test addresses AD-Myo5 [S. cerevisiae]. Description: yeast two-hybrid (β-galactosidase activity). Conditions: read off a plot.

As for “She4-BD, wild type mutant S18A [S. cerevisiae] / AD-Myo5 [S. cerevisiae] chain 1 S18A”, the response reads like this: (25 °C (no heat shock)) 0.34 mU; (39 °C (heat shock)) 0.45 mU.

Turning to “She4-BD, wild type mutant S18E [S. cerevisiae] / AD-Myo5 [S. cerevisiae] chain 1 S18E”, the response reads like this: (25 °C (no heat shock)) 0.075 mU; (39 °C (heat shock)) 0.17 mU.

Take “human BD-UNC45-SM, wild type mutant S251A [human] / AD-Myo5 [S. cerevisiae] chain 1 S251A”: the response runs as follows: (25 °C (no heat shock)) 0.79 mU; (39 °C (heat shock)) 1 mU.

“human BD-UNC45-SM, wild type mutant S251E [human] / AD-Myo5 [S. cerevisiae] chain 1 S251E”: the response was determined as 0.29 mU (25 °C (no heat shock)) and 0.52 mU (39 °C (heat shock)).
